Measurements reported in publication doi:10.1101/2021.03.25.436940.

Molecular target: T1, OsGSTU5 (Oryza sativa, UniProt Q0J294 6-233)
T1 sequence: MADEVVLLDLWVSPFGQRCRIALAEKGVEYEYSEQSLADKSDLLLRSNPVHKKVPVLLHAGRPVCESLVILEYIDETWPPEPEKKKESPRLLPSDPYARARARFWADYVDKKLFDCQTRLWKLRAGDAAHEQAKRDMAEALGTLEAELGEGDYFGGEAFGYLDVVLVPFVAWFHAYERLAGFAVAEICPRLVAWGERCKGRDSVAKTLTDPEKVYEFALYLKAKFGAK
Experiment: EMSA

GCGGTGGAAGTAGCAACAGCGGTTCTAGCGGCAGCGGCG (ssDNA) [39-nt experimental oligo (ssDNA)]
binding result: no binding
